Test results as given in article PMC9929924, “Phosphorylation of the receptor protein Pex5p modulates import of proteins into peroxisomes” (Biological Chemistry, 2022).

Legend:
[1] = system: Pex5p^2D cells; test: Fluorescence microscopy, peroxisomal import of GFP-tagged proteins in Pex5p^2D-expressing cells; type: cell-based, S. cerevisiae; parameters: key to import phenotype category: showed a reduced peroxisomal import and constitute category 1; category 2 characterized by no peroxisomal import; without a noticeable effect on import in Pex5p^2D cells (category 3); conditions: GFP-tagged protein, Pex3p-mCherry marker, SD medium, 2% glucose; for import phenotype category: Pex5p^2D-expressing cells, assessed manually
From the text: Query strains were constructed on the basis of an automated mating compatible strain. The query strains contained a peroxisomal marker (Pex3p-mCherry::HIS), a deletion of PEX5 (pex5Δ::NAT) and a plasmid expressing WT or mutant PEX5 (PEX5^WT, PEX5^2D or PEX5^2A). Using an automated mating method ([Cohen and Schuldiner 2011]; [Tong and Boone 2006]), the query strains were crossed with a NOP1pr-N′-GFP-peroxi library ([Dahan et al. 2017]). The NOP1pr-N′-GFP-peroxisomal library is a collection of ∼90 strains containing all the known peroxisomal proteins together with potential peroxisomal proteins and controls, genomically tagged with GFP at their N-terminus and expressed under the generic constitutive SpNOP1 promoter. To perform the manipulations in high-density format we used a RoToR bench top colony arrayer (Singer Instruments). In short: mating was performed on rich medium plates, and selection for diploid cells was performed on SD(MSG)-HIS-URA plates containing Geneticin (200 μg ml^−1) and Nourseothricin (200 μg ml^−1). Sporulation was induced by transferring cells to nitrogen starvation media plates for 7 days. Haploid cells containing the desired mutations were selected by transferring cells to SD-URA-HIS-LYS-ARG-LEU plates containing Geneticin and Nourseothricin (same concentrations as above), alongside the toxic amino acid derivatives Canavanine and Thialysine (Sigma-Aldrich) to select against remaining diploids and select for spores with an α mating type. A similar method was used to generate control, pex5Δ, and pex8Δ strains expressing GFP-Mdh3p (Supplementary Figure 4D), in which the query strain contained a peroxisomal marker (Pex3p-mCherry::NAT) and URA3::GFP-Mdh3p. This query strain was crossed with three strains from the mini peroxisomal deletion library ([Gabay-Maskit et al. 2020]): a control (no deletion), pex5Δ, and pex8Δ strain, all of which contain KAN (Geneticin) resistance.
The yeast collections were visualized using an automated microscopy setup as described previously ([Breker et al. 2013]). In short: cells were transferred from agar plates into 384-well polystyrene plates (Greiner) for growth in liquid media using the RoToR arrayer robot. Liquid cultures were grown in a LiCONiC incubator, overnight at 30 °C in SD-URA-HIS medium. A JANUS liquid handler (PerkinElmer) connected to the incubator was used to dilute the strains to an OD600 of ∼0.2 into plates containing SD medium (6.7 g l^−1 yeast nitrogen base and 2% glucose) supplemented with complete amino acids. Plates were incubated at 30 °C for 4 h. The cultures in the plates were then transferred by the liquid handler into glass-bottom 384-well microscope plates (Matrical Bioscience) coated with Concanavalin A (Sigma-Aldrich). After 20 min, cells were washed three times with SD-Riboflavin complete medium to remove non-adherent cells and to obtain a cell monolayer. The plates were then transferred to the ScanR automated inverted fluorescent microscope system (Olympus) using a robotic swap arm (Hamilton). Images of cells in the 384-well plates were recorded in the same liquid as the washing step at 24 °C using a 60× air lens (NA 0.9) and with an ORCA-ER charge-coupled device camera (Hamamatsu). Images were acquired in two channels: GFP (excitation filter 490/20 nm, emission filter 535/50 nm) and mCherry (excitation filter 572/35 nm, emission filter 632/60 nm). All images were taken at a single focal plane. The same protocol was used to visualize fluorescence signals in GFP-Mdh3p-expressing control, pex5Δ, and pex8Δ strains (Supplementary Figure 4D).

[2] = system: GFP-SKL import in pex5Δ yeast cells; test: Fluorescence microscopy, import of GFP-SKL in cells expressing Pex5p variants; type: cell-based, S. cerevisiae; conditions: pex5Δ cells expressing plasmid-encoded Pex5p variant and GFP-SKL; grown in oleate
Protocol: Cells expressing distinct Pex5p variants (wildtype, Pex5p^2A or Pex5p^2D) and GFP-SKL were grown overnight in 50 ml YNO medium supplemented with 0.1% (w/v) glucose to an OD600 of 1–1.5. Aliquots of 5.4 ml were taken and formaldehyde was added to a final concentration of 3.7% (v/v). Samples were incubated for 10 min at RT with slight agitation. Cells were collected by centrifugation (5 min at 2000 g), resuspended in 1 ml of 0.1 M potassium phosphate buffer (pH 6.8) containing 3.7% (v/v) formaldehyde and incubated for 1 h at RT with slight agitation. Following centrifugation (30 s at 16,000 g), cells were resuspended in 1 ml of 0.1 M potassium phosphate buffer (pH 6.8) containing 10 mM ethanolamine and incubated for further 10 min at RT. Subsequently, cells were washed twice with phosphate-buffered saline (PBS) and resuspended in 10–20 µl of PBS containing 0.1% (v/v) Triton X-100. Fixed cells were analyzed within 48 h after preparation.
Fluorescence microscopy was performed using a Zeiss Axio Observer.Z1 microscope equipped with an alpha Plan-Aprochromat 100× objective and an AxioCam MR R3. GFP signal was visualized with a 38 HE filterset from Zeiss. Images were processed using Adobe Photoshop CS5 (version 12.0.4 ×64; Adobe Systems Incorporated). To document the structural integrity of cells, bright field images were acquired, adjusted in a way that only the cell boundaries were visible and subsequently added into the blue channel in Photoshop as reported before ([Motley and Hettema 2007]).

Molecule	import phenotype category [1]	also measured
Pex8p: essential component of the import machinery for peroxisomal matrix proteins	category 1	
Pex5p^S507D (protein, UniProt P35056 1-612, looked up, variant S507D) Peroxisomal targeting signal …: MDVGSCSVGNNPLAQLHKHTQQNKSLQFNQKNNGRLNESPLQGTNKPGISEAFISNVNAISQENMANMQRFINGEPLIDDKRRMEIGPSSGRLPPFSNVHSLQTSANPTQIKGVNDISHWSQEFQGSNSIQNRNADTGNSEKAWQRGSTTASSRFQYPNTMMNNYAYASMNSLSGSRLQSPAFMNQQQSGRSKEGVNEQEQQPWTDQFEKLEKEVSENLDINDEIEKEENVSEVEQNKPETVEKEEGVYGDQYQSDFQEVWDSIHKDAEEVLPSELVNDDLNLGEDYLKYLGGRVNGNIEYAFQSNNEYFNNPNAYKIGCLLMENGAKLSEAALAFEAAVKEKPDHVDAWLRLGLVQTQNEKELNGISALEECLKLDPKNLEAMKTLAISYINEGYDMSAFTMLDKWAETKYPEIWSRIKQQDDKFQKEKGFTHIDMNAHITKQFLQLANNLSTIDPEIQLCLGLLFYTKDDFDKTIDCFESALRVNPNDELMWNRLGASLANSNRDEEAIQAYHRALQLKPSFVRARYNLAVSSMNIGCFKEAAGYLLSVLSMHEVNTNNKKGDVGSLLNTYNDTVIETLKRVFIAMNRDDLLQEVKPGMDLKRFKGEFSF		subcellular distribution of GFP-SKL [2]: wildtype-like distribution of GFP-SKL
Pex5p^S523D (protein, UniProt P35056 1-612, looked up, variant S523D) Peroxisomal targeting signal …: MDVGSCSVGNNPLAQLHKHTQQNKSLQFNQKNNGRLNESPLQGTNKPGISEAFISNVNAISQENMANMQRFINGEPLIDDKRRMEIGPSSGRLPPFSNVHSLQTSANPTQIKGVNDISHWSQEFQGSNSIQNRNADTGNSEKAWQRGSTTASSRFQYPNTMMNNYAYASMNSLSGSRLQSPAFMNQQQSGRSKEGVNEQEQQPWTDQFEKLEKEVSENLDINDEIEKEENVSEVEQNKPETVEKEEGVYGDQYQSDFQEVWDSIHKDAEEVLPSELVNDDLNLGEDYLKYLGGRVNGNIEYAFQSNNEYFNNPNAYKIGCLLMENGAKLSEAALAFEAAVKEKPDHVDAWLRLGLVQTQNEKELNGISALEECLKLDPKNLEAMKTLAISYINEGYDMSAFTMLDKWAETKYPEIWSRIKQQDDKFQKEKGFTHIDMNAHITKQFLQLANNLSTIDPEIQLCLGLLFYTKDDFDKTIDCFESALRVNPNDELMWNRLGASLANSNRSEEAIQAYHRALQLKPDFVRARYNLAVSSMNIGCFKEAAGYLLSVLSMHEVNTNNKKGDVGSLLNTYNDTVIETLKRVFIAMNRDDLLQEVKPGMDLKRFKGEFSF		subcellular distribution of GFP-SKL [2]: wildtype-like distribution of GFP-SKL
Idp3p (protein, UniProt P53982 1-420, looked up) Isocitrate dehydrogenase …: MSKIKVVHPIVEMDGDEQTRVIWKLIKEKLILPYLDVDLKYYDLSIQERDRTNDQVTKDSSYATLKYGVAVKCATITPDEARMKEFNLKEMWKSPNGTIRNILGGTVFREPIIIPKIPRLVPHWEKPIIIGRHAFGDQYRATDIKIKKAGKLRLQFSSDDGKENIDLKVYEFPKSGGIAMAMFNTNDSIKGFAKASFELALKRKLPLFFTTKNTILKNYDNQFKQIFDNLFDKEYKEKFQALKITYEHRLIDDMVAQMLKSKGGFIIAMKNYDGDVQSDIVAQGFGSLGLMTSILITPDGKTFESEAAHGTVTRHFRKHQRGEETSTNSIASIFAWTRAIIQRGKLDNTDDVIKFGNLLEKATLDTVQVGGKMTKDLALMLGKTNRSSYVTTEEFIDEVAKRLQNMMLSSNEDKKGMCKL	category 2	
Mls1p (protein, UniProt P30952 1-554, looked up) Malate synthase 1: MVKVSLDNVKLLVDVDKEPFFKPSSTTVGDILTKDALEFIVLLHRTFNNKRKQLLENRQVVQKKLDSGSYHLDFLPETANIRNDPTWQGPILAPGLINRSTEITGPPLRNMLINALNAPVNTYMTDFEDSASPTWNNMVYGQVNLYDAIRNQIDFDTPRKSYKLNGNVANLPTIIVRPRGWHMVEKHLYVDDEPISASIFDFGLYFYHNAKELIKLGKGPYFYLPKMEHHLEAKLWNDVFCVAQDYIGIPRGTIRATVLIETLPAAFQMEEIIYQLRQHSSGLNCGRWDYIFSTIKRLRNDPNHILPNRNQVTMTSPFMDAYVKRLINTCHRRGVHAMGGMAAQIPIKDDPAANEKAMTKVRNDKIRELTNGHDGSWVAHPALAPICNEVFINMGTPNQIYFIPENVVTAANLLETKIPNGEITTEGIVQNLDIGLQYMEAWLRGSGCVPINNLMEDAATAEVSRCQLYQWVKHGVTLKDTGEKVTPELTEKILKEQVERLSKASPLGDKNKFALAAKYFLPEIRGEKFSEFLTTLLYDEIVSTKATPTDLSKL	category 2	
Str3p: peroxisomal cystathionine beta-lyase (protein, UniProt P53101 1-465, looked up) Cystathionine beta-lyase: MPIKRLDTVVVNTGSQNDQHSASVPPVYLSTTFKVDLNNEDAQNYDYSRSGNPTRSVLQHQIGKLYRVPQENVLAVSSGMTALDVILRGLVLLNGTDNHTPTIIAGDDLYGGTQRLLNFFKQQSHAVSVHVDTSDFEKFKTVFQSLDKVDCVLLESPTNPLCKVVDIPRILRFVKCISPDTTVVVDNTMMSGLNCNPLQLNPGCDVVYESATKYLNGHHDLMGGVIISKTPEIASKLYFVINSTGAGLSPMDSWLLVRGLKTLGVRLYQQQRNAMILAHWLENSCGFKPTRTNKATKTRFVGLRSNPDFKLHKSFNNGPGAVLSFETGSFEHSKRLVSSKKLSIWAVTVSFGCVNSLLSMPCKMSHASIDPELRKERDFPEDLVRLCCGIENIVDLKKDLLAAMVDADIIEVRENGKYLFNKLNKNLAVNTTIDDLHKPLSIYEEFYNQDLIRKDSELNIKSSKL	category 3	
Pnc1p: nicotinamidase, imported by piggy-backing on Gpd1p (protein, UniProt P53184 1-216, looked up) Nicotinamidase: MKTLIVVDMQNDFISPLGSLTVPKGEELINPISDLMQDADRDWHRIVVTRDWHPSRHISFAKNHKDKEPYSTYTYHSPRPGDDSTQEGILWPVHCVKNTWGSQLVDQIMDQVVTKHIKIVDKGFLTDREYYSAFHDIWNFHKTDMNKYLEKHHTDEVYIVGVALEYCVKATAISAAELGYKTTVLLDYTRPISDDPEVINKVKEELKAHNINVVDK		subcellular distribution / peroxisomal import ([1]; Pex5p^2D cells): no differences in localization
